We go through 1 protein from paper PMC9986795, “Structural basis of DNA binding by YdaT, a functional equivalent of the CII repressor in the cryptic prophage CP-933P from Escherichia coli O157:H7” (Acta Crystallographica. Section D, Structural Biology, 2023).

This series deals with the molecule itself. Put plainly: crystal structure; sitting drop, 0.1 M bis-Tris pH 5.5, 2.0 M ammonium sulfate, 19°C; free YdaT, a tetramer in the asymmetric unit, 2.4 Å.

B1: YdaT from the cryptic prophage CP-933P of Escherichia coli O157:H7 (wild-type YdaT) (natural protein)
chain: KIKHEHIRMAMNVWAHPDGEKVPAAKITKAYFELGMTFPELYDDSHPEALARNTQKIFRWLDKDTPDAVEKMQALLPAIEKAMPPLLVARMRSHSSEYYREIVERRDRLVKDVDDFVASAVVLYDQMNRGGPAGNAVVMH
notes: YdaT, E. coli O157:H7 prophage CP-933P, open reading frame in pET-28b; also called CP-933P YdaT; full-length protein
For B1, the “stoichiometry N” value amounted to 4.

For orientation: stoichiometry N means the number of molecules, sites or subunits per partner or assembly.
